Results from patent US11571480B2, “Multi-ligand drug conjugates and uses thereof” (priority 2015, dated 2023).
Numbered stars: 1 amine (or outer) side, 2 acyl side, 3 side chain; on linkers, the order of the positions; unused ones are H or OH. Bridge positions count the residues as written; N and C are the ends. Square brackets hold non-standard residues; d marks the D form. Peptide text beside a SMILES is read from it. I, II: the chains in the order shown. * marks the point of attachment. Hexanoyl(6-succinimido-3yl) = O=C1CC([*:1])C(=O)N1CCCCCC(=O)[*:2]; Dolaproine = CO[C@@H]([C@@H]1CCCN1)[C@@H](C)C(=O)O; Dil = CC[C@H](C)[C@H](NC)[C@@H](CC(=O)O)OC; PABC = O=C(OCc1ccc(N[*:1])cc1)[*:2]; X1 = C[C@@H](N*)[C@@H](O)c1ccccc1; Cit = NC(=O)NCCC[C@H](N)C(=O)O; NMeV = CN[C@H](C(=O)O)C(C)C

Experiments:
[1] = system: human lung cancer cell H1299; assay: Cytotoxicity test of conjugate LDC10H; assay type: cell-based; conditions: H1299, incubated 15-30 min, then 2-3 days
Method: (§1) Culture medium: RPMI 1640 Medium, no folic acid
(§2) 1) human lung cancer cell H1299, ovarian cancer cell SKOV3, breast cancer cell line HCC1954, and human lung cancer cell H460 were incubated at 37° C., 5% CO2 in RPMI 1640 medium containing 10% fetal bovine serum, the cells were passaged every 2-3 days.
(§3) 2) human lung cancer cell H1299, ovarian cancer cell SKOV3, breast cancer cell line HCC1954, and human lung cancer cell H460 were plated at 1×10^3 cells per well (96-well plate) and incubated for 8-12 h at 37° C., 5% CO2.
(§4) 3) Stock solutions of LDC conjugates or control were prepared in PBS solution. 100 μL/well of serially diluted LDC conjugates or control was added to the cells in the plate and incubated for 15-30 min at 37° C., 5% CO2. The culture medium in the wells was then removed by aspiration and the cells were incubated in fresh culture medium without conjugates (150 μL/well) for 2-3 days at 37° C., 5% CO2.
(§5) 4) CellTiter 96® Aqueous One Solution Cell Proliferation Assay (Promega) was added to each well to measure the amount of […] cells, and the plate was incubated in an incubator for 1 h at 37° C., 5% CO2.
(§6) 5) the plate was read at 490 nm on a microplate reader, and the cell survivals were compared for cells with or without the treatment of LDC conjugates. The LDC drug concentrations that are required for 50% cell death (IC50 values) were determined.

[2] = system: human lung cancer cell H460; assay: Cytotoxicity test of conjugate LDC10H; assay type: cell-based; conditions: H460, incubated 15-30 min, then 2-3 days
Method: as §1, §2, §3, §4, §5, §6

[3] = system: Transplanted HCC1954 tumor; assay: Inhibitory assay of conjugates LDC10B and LDC10H against xenograf tumors; assay type: in vivo, nude mice; conditions: 10 mg/kg
Method: (§7) Animal: nude mice, aged 6-8 weeks, female
(§8) 1) human large cell lung cancer cell H460, human lung cancer cell A549, ovarian cancer cell SKOV3, and breast cancer cell line HCC1954 were incubated at 37° C., 5% CO2 in IMDM medium containing 10% fetal bovine serum, the cells were passaged every 2-3 days.
(§9) 2) generation of tumors: 7×10^6 tumor cells were injected subcutaneously into the back of nude mice, and the mice were grouped for treatment after the tumor sizes were as large as about 100-200 mm^3.
(§10) 3) treatment: 3 mice/group, treated with LDC10B, LDC10H, as well as controls MMAE and PBS with doses of 5 and 10 mg/kg every 5 days, three injections.
(§11) 4) the physical performance, body weights and tumor sizes of the animals were monitored. The number of animal death was recorded during the experiment.

Transplanted H460 tumor = assay: as above; assay type: in vivo, nude mice
Method: as §7, §8, §9, §10, §11

[4] = Detection of conjugate concentrations in xenograf tumor models (serum, anti-MMAE ELISA); assay type: in vivo, nude mice; conditions: 10 mg/kg, peritoneal injection
Method: as §7
1) Human ovarian cancer cell SKOV3 and breast cancer cell line HCC1954 were incubated at 37° C., 5% CO2 in IMDM medium containing 10% fetal bovine serum, the cells were passaged every 2-3 days.
2) generation of tumors: 7×10^6 tumor cells were injected subcutaneously into the back of nude mice, and the mice were grouped for treatment after the tumor sizes were as large as about 100˜200 mm^3.
3) treatment: 3 mice/group, 10 mg/kg, peritoneal injection.
4) blood collection: the time for blood collection before treatment was set as 0, blood was collected at 20 min, 2 h, 4 h, and 24 h after treatment. The blood was centrifuged to collect serum, which was frozen and preserved.
5) Detection: the total amount of MMAE, LDC10B, LDC10H, as well as the MMAE metabolites of LDC10B and LDC10H in serum were detected by mice anti-MMAE ELISA kit.

[5] = system: ovarian cancer cell SKOV3; assay: Cytotoxicity test of conjugate LDC10H; assay type: cell-based, human; conditions: SKOV3, incubated 15-30 min, then 2-3 days
Method: as §1, §2, §3, §4, §5, §6

[6] = system: breast cancer cell line HCC1954; assay: Cytotoxicity test of conjugate LDC10H; assay type: cell-based, human; conditions: HCC1954, incubated 15-30 min, then 2-3 days
Method: as §1, §2, §3, §4, §5, §6

## CC[C@H](C)[C@@H]([C@@H](CC(=O)N1CCC[C@H]1[C@H](OC)[C@@H](C)C(=O)N[C@H](C)[C@@H](O)c1ccccc1)OC)N(C)C(=O)[C@@H](NC(=O)[C@H](C(C)C)N(C)C(=O)OCc1ccc(NC(=O)[C@H](CCCNC(N)=O)NC(=O)[C@@H](NC(=O)CCCCCN2C(=O)CC(SC[C@H](NC(=O)[C@H](CCCNC(=N)N)NC(=O)[C@H](CCCNC(=N)N)NC(=O)[C@H](CCCNC(=N)N)NC(=O)[C@H](CCCNC(=N)N)NC(=O)[C@H](CCCNC(=N)N)NC(=O)[C@H](CCCNC(=N)N)NC(=O)[C@H](CCCNC(=N)N)NC(=O)[C@H](CCCNC(=N)N)NC(=O)[C@@H](N)CCCNC(=N)N)C(=O)N[C@@H](CCCCN)C(=O)N[C@@H](CCC(=O)O)C(=O)N[C@@H](Cc3ccccc3)C(=O)N[C@@H](CC(C)C)C(=O)N[C@@H](Cc3c[nH]cn3)C(=O)N3CCC[C@H]3C(=O)N[C@@H](CO)C(=O)N[C@@H](CCCCN)C(=O)N[C@H](C(=O)N[C@@H](CC(=O)O)C(=O)N[C@@H](CC(C)C)C(=O)N3CCC[C@H]3C(=O)N[C@@H](CCCNC(=N)N)C(=O)O)C(C)C)C2=O)C(C)C)cc1)C(C)C (stereo partly shown) [LDC10H] (I: H-RRRRRRRRRCKEFLHPSKVDLPR-OH / II: V[Cit][PABC][NMeV]V[Dil][Dolaproine]-X1; linker I:10-II:N via Hexanoyl(6-succinimido-3yl))
[1]
  IC50: 90.4 nM
[2]
  IC50: 85.3 nM
[3]; Before Injection
  Body weight of mice: 22.05 g
[3]; Five days after Injection 1
  Body weight of mice: 23.32 g
[3]; Five days after Injection 2
  Body weight of mice: 22.87 g
[3]; Five days after Injection 3
  Body weight of mice: 22.51 g
Transplanted H460 tumor; 5 mg/kg, Before Injection
  Body weight of mice: 23.29 g
Transplanted H460 tumor; 5 mg/kg, Five days after Injection 1
  Body weight of mice: 24.26 g
Transplanted H460 tumor; 5 mg/kg, Five days after Injection 2
  Body weight of mice: 23.14 g
Transplanted H460 tumor; 5 mg/kg, Five days after Injection 3
  Body weight of mice: 23.22 g
Transplanted H460 tumor; 10 mg/kg, Before Injection
  Body weight of mice: 23.37 g
Transplanted H460 tumor; 10 mg/kg, Five days after Injection 1
  Body weight of mice: 24.39 g
Transplanted H460 tumor; 10 mg/kg, Five days after Injection 2
  Body weight of mice: 22.12 g
Transplanted H460 tumor; 10 mg/kg, Five days after Injection 3
  Body weight of mice: 23.61 g
[4]; 20 min
  Concentration in serum: 770 ng/mL
[4]; 2 h
  Concentration in serum: 580 ng/mL
[4]; 4 h
  Concentration in serum: 196 ng/mL
[4]; 24 h
  Concentration in serum: 0 ng/mL
  detected in serum at 24 h after treatment (in words): none
[4]; Before Treatment
  Concentration in serum: 0 ng/mL
[5]
  IC50: 73.8 nM
[6]
  IC50: 36 nM
